Assay results taken from US20230212549A1 (3B PHARMACEUTICALS, published 2023).
Numbered stars: 1 amine (or outer) side, 2 acyl side, 3 side chain; on linkers, the order of the positions; unused ones are H or OH. Bridge positions count the residues as written; N and C are the ends. Square brackets hold non-standard residues; d marks the D form. Primed or numbered codes have the meaning given here. * marks the point of attachment. tMeBn(DOTA-PP) = 1,3,5-trimethylbenzylidene, two thioethers to Cys, third CH2 bound to one N of piperazine whose other N bears DOTA, O=C(O)CN1CCN(CC(=O)O)CCN(CC(=O)N2CCN(Cc3cc(C[*:1])cc(C[*:2])c3)CC2)CCN(CC(=O)O)CC1; tMeBn(DOTA-AET) = 1,3,5-trimethylbenzylidene (from 1,3,5-tris(bromomethyl)benzene), two thioethers to Cys, third CH2 bears 2-aminoethanethiol via S, its amine acylated by DOTA; Ttds″ = 1,13-diamino-4,7,10-trioxatridecan-succinamic acid spacer, O=C(CCC(=O)[*:2])NCCCOCCOCCOCCCN[*:1]; Efa = N-[2-(2-amino-ethanesulfonyl)-ethyl]-succinamic acid, O=C(CCC(=O)[*:2])NCCS(=O)(=O)CCN[*:1]; Ttds = 1,13-diamino-4,7,10-trioxatridecan-succinamic acid, O=C(CCC(=O)[*:2])NCCCOCCOCCOCCCN[*:1]; N4Ac = 6-Carboxy-1,4,8,11-tetraazaundecane, an N4-chelator, NCCNCC(CNCCN)C(=O)*; 3MeBn(3) = 3-methylbenzylidene (m-xylylene), from α,α′-dibromo-m-xylene; DOTA = O=C(O)CN1CCN(CC(=O)O)CCN(CC(=O)*)CCN(CC(=O)O)CC1; γGlu = O=C(O)[C@H](CCC(=O)[*:2])N[*:1]; mXylylene = c1cc(C[*:1])cc(C[*:2])c1; AGLU′ = not defined here; Nle = CCCC[C@H](N)C(=O)O; Hexanoyl = CCCCCC(=O)*

T1: recombinant human PREP (R&D systems, #4308-SE) (human, UniProt P48147 1-710)
T1 sequence: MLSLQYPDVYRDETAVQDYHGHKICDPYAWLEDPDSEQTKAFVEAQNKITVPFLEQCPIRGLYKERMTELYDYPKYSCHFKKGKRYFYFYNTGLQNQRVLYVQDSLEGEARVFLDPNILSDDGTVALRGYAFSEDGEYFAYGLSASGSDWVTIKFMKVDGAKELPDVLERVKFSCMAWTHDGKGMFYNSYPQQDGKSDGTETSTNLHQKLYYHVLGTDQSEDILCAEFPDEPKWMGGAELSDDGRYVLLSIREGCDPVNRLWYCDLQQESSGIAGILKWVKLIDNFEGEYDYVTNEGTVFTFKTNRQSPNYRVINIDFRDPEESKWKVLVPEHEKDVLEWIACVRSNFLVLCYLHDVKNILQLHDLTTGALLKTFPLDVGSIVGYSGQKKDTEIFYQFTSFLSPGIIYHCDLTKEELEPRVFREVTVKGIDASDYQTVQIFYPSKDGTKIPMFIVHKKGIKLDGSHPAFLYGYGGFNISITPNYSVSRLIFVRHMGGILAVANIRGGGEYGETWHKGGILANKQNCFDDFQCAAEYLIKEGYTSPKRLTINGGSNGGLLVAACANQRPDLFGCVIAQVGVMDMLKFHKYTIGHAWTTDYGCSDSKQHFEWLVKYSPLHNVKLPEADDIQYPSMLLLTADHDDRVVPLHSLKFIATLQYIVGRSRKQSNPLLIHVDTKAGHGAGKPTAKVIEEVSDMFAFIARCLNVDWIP

B1: Hex-[Cys(tMeBn(DOTA-PP))-Pro-Pro-Thr-Gln-Phe-Cys]-Asp-NH2 (peptide)
peptide: Hexanoyl-CPPTQFCD-NH2
modifications: linker 1-7 via tMeBn(DOTA-PP)
SMILES: CCCCCC(=O)N[C@H]1CSCc2cc(cc(CN3CCN(C(=O)CN4CCN(CC(=O)O)CCN(CC(=O)O)CCN(CC(=O)O)CC4)CC3)c2)CSC[C@@H](C(=O)N[C@@H](CC(=O)O)C(N)=O)NC(=O)[C@H](Cc2ccccc2)NC(=O)[C@H](CCC(N)=O)NC(=O)[C@H]([C@@H](C)O)NC(=O)[C@@H]2CCCN2C(=O)[C@@H]2CCCN2C1=O
B2: N4Ac-Ttds-Nle-[Cys-(3MeBn)-Pro-Pro-Thr-Glu-Phe-Cys]-OH (peptide)
peptide: N4Ac-[Ttds″][Nle]CPPTEFC-OH
modifications: linker 3-9 via mXylylene
SMILES: CCCC[C@H](NC(=O)CCC(=O)NCCCOCCOCCOCCCNC(=O)C(CNCCN)CNCCN)C(=O)N[C@H]1CSCc2cccc(c2)CSC[C@@H](C(=O)O)NC(=O)[C@H](Cc2ccccc2)NC(=O)[C@H](CCC(=O)O)NC(=O)[C@H]([C@@H](C)O)NC(=O)[C@@H]2CCCN2C(=O)[C@@H]2CCCN2C1=O
notes: also called 3BP-4161
B3: N4Ac-Glu(AGLU′)-Glu(AGLU′)-Ttds-Nle-[Cys-(3MeBn)-Pro-Pro-Thr-Glu-Phe-Cys]-OH (peptide)
peptide: N4Ac-E(AGLU′)E(AGLU′)[Ttds″][Nle]CPPTEFC-OH
modifications: linker 5-11 via 3MeBn(3); reading uncertain; also: printed as N4Ac-Glu(AGLU′)-Glu(AGLU′)-Ttds-Nle-[Cys-(3MeBn)-Pro-Pro-Thr-Glu-Phe-Cys]-OH
notes: also called 3BP-4266
B4: N4Ac-gGlu-Ttds-Nle-[Cys-(3MeBn)-Pro-Pro-Thr-Glu-Phe-Cys]-OH (peptide)
peptide: N4Ac-[γGlu][Ttds″][Nle]CPPTEFC-OH
modifications: linker 4-10 via mXylylene
SMILES: CCCC[C@H](NC(=O)CCC(=O)NCCCOCCOCCOCCCNC(=O)CC[C@H](NC(=O)C(CNCCN)CNCCN)C(=O)O)C(=O)N[C@H]1CSCc2cccc(c2)CSC[C@@H](C(=O)O)NC(=O)[C@H](Cc2ccccc2)NC(=O)[C@H](CCC(=O)O)NC(=O)[C@H]([C@@H](C)O)NC(=O)[C@@H]2CCCN2C(=O)[C@@H]2CCCN2C1=O
notes: also called 3BP-4247
B5: Hex-[Cys(tMeBn(DOTA-AET))-Pro-Pro-Thr-Gln-Phe-Cys]-OH (peptide)
peptide: Hexanoyl-CPPTQFC-OH
modifications: bridge 1-7; not fully specified (bridges); printed as Hex-[Cys(tMeBn(DOTA-AET))-Pro-Pro-Thr-Gln-Phe-Cys]-OH; also: DOTA-AET attached to tMeBn scaffold

The binders below were run against T2, Recombinant human FAP (R&D systems, #3715-SE) (human, UniProt Q12884 26-760) (assay: SPR (Biacore T200), FAP captured on anti-FAP antibody, single cycle kinetics).
T2 construct: bought; in SPR captured on immobilized anti-FAP antibody MAB3715; also called rhFAP; human recombinant FAP

Row | Binder | pKD Category [pKD]
1 | B1 | > 8
2 | B2 | > 8

The binders below were run against T3, human fibroblast activation protein (FAP) on WI-38 fibroblasts (human, UniProt Q12884 1-760) (assay: competitive FACS, WI-38 cells, Cy5-labeled peptide as competitor; B = pIC50 7.1 to 8.0).
T3 construct: FAP-expressing human WI-38 fibroblasts (ECACC)

Row | Binder | pIC50 [pic50]
3 | B3 | 7.1 to 8
4 | N4Ac-[Efa][Nle]CPPTEFC-OH (linker 3-9 via 3MeBn(3), also called 3BP-4243) [N4Ac-Efa-Nle-[Cys-(3MeBn)-Pro-Pro-Thr-Glu-Phe-Cys]-OH] | 7.1 to 8
5 | B4 | 7.1 to 8
6 | {DOTA}-[Ttds][Nle]CPPTQFCD[Ttds]K(DOTA)-NH2 (linker 3-9 via tMeBn(DOTA-AET), also called 3BP-4392) [DOTA-Ttds-Nle-[Cys(tMeBn(DOTA-AET))-Pro-Pro-Thr-Gln-Phe-Cys]-Asp-Ttds-Lys(DOTA)-NH2] | 7.1 to 8

Each binder was assayed against T2, Recombinant human FAP (R&D systems, …) (assay: cell-based or functional assay).

Row | Binder | pIC50 Category (Activity) [pIC50]
7 | B2 | > 8

The binders below were run against T3, human fibroblast activation protein … (assay: competitive FACS, WI-38 cells, Cy5-labeled peptide as competitor).

Row | Binder | pIC50 Category (FACS) [pIC50]
8 | B2 | > 8

Each binder was assayed against T1, recombinant human PREP (R&D systems, …) (assay: cell-based or functional assay).

Row | Binder | pIC50 (PREP) [pIC50]
9 | Hexanoyl-CPPTQFC-NH2 (linker 1-7 via mXylylene) [Hex-[Cys(3MeBn)-Pro-Pro-Thr-Gln-Phe-Cys]-NH2] | < 6
10 | B5 | < 6
11 | B1 | < 6

What follows are binders tested against Recombinant human DPP4 (R&D systems, #9168-SE) (human, UniProt P27487 29-766) (assay: cell-based or functional assay).
Recombinant human DPP4 (R&D systems, #9168-SE), sequence (P27487 29-766 limits assumed): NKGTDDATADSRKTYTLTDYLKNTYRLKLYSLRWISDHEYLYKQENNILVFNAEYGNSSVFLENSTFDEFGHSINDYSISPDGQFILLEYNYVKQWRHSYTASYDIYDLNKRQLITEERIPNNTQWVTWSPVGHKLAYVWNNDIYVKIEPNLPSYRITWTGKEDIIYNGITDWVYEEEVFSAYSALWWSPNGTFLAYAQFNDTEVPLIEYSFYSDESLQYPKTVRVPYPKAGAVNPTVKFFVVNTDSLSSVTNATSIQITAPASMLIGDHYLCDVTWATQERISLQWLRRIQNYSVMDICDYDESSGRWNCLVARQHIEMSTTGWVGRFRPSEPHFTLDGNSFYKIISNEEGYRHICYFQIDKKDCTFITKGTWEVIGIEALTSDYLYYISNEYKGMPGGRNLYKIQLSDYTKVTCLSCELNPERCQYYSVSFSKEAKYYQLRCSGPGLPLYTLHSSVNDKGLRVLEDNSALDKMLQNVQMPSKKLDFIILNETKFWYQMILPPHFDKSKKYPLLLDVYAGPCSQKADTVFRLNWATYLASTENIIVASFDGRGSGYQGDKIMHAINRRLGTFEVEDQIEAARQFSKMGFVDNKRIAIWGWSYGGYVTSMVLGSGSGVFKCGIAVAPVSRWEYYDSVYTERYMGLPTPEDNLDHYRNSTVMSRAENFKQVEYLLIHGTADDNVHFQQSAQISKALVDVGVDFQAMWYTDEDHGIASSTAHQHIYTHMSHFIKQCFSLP

Row | Binder | pIC50 (DPP4) [pIC50]
12 | Hexanoyl-CPPTQFC-NH2 (linker 1-7 via mXylylene) [Hex-[Cys(3MeBn)-Pro-Pro-Thr-Gln-Phe-Cys]-NH2] | < 6
13 | B5 | < 6
14 | B1 | < 6
